Patent US20150203577A1 (Chugai, published 2015)
Where two headings read alike, the source gives them in different places.

Tests used:
[1] = target: T1, mouse FcγRII extracellular domain with C-terminal His tag (mouse, UniProt P08101 30-210); test: SPR Biacore T200
T1 construct: Made on the basis of NCBI NP-034317.1; also called mFcγRII; mFcgRII
T1 sequence: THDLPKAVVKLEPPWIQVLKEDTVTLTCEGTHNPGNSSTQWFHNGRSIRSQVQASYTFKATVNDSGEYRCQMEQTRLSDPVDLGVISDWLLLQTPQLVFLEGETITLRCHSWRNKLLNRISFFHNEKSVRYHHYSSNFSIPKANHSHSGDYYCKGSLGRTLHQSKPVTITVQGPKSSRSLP

[2] = target: T2, mouse FcγRIII extracellular domain with C-terminal His tag (mouse, UniProt P08508 31-215); test: SPR Biacore T200
T2 construct: Made on the basis of NCBI NP-034318.2; also called mFcγRIII; mFcgRIII
T2 chain: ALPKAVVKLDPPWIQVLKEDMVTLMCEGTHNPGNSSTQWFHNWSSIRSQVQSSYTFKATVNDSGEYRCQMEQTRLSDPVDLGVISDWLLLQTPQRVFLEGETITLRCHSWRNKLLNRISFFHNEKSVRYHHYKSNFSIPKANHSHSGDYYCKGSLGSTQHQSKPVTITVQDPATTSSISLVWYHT

[3] = target: T1, mouse FcγRII extracellular domain with …; test: SPR Biacore T200; remark: listed apart in the source
Procedure: (§1) Each altered antibody was analyzed for its interaction with each Fcγ receptor prepared above using Biacore T100 (GE Healthcare Japan Corp.), Biacore T200 (GE Healthcare Japan Corp.), Biacore A100, or Biacore 4000. The running buffer used was HBS-EP+ (GE Healthcare Japan Corp.). The assay temperature was set to 25° C. The sensor chips used were chips prepared by immobilizing Protein L (ACTIGEN or BioVision) onto Series S Sensor Chip CM5 (GE Healthcare Japan Corp.) or Series S Sensor Chip CM4 (GE Healthcare Japan Corp.) by the amine coupling method.
(§2) In order to calculate the KD value of each altered antibody for FcγR, kinetic analysis was conducted according to the following method: first, the antibody of interest was captured onto any of these chips and allowed to interact with mFcγR diluted with a running buffer. For the obtained sensorgram, the assay results were globally fit into the 1:1 Langmuir binding model using Biacore Evaluation Software to calculate an association rate constant ka (L/mol/s) and a dissociation rate constant kd (1/s). From these values, the dissociation constant KD (mol/L) was calculated.

[4] = target: T2, mouse FcγRIII extracellular domain with …; test: SPR Biacore T200
Procedure: as §1, §2

[5] = target: T1, mouse FcγRII extracellular domain with …; test: SPR Biacore T200; remark: listed apart in the source
Procedure: as §1, §2

[6] = target: T2, mouse FcγRIII extracellular domain with …; test: SPR Biacore T200
Procedure: as §1, §2

[7] = target: T1, mouse FcγRII extracellular domain with …; test: SPR Biacore T200; KD mFcγRIII / KD mFcγRII

B1: H237-MB387/MRAL-k0 (antibody, mouse IgG1, kappa)
heavy: QVQLQESGPGLVKPSETLSLTCAVSGHSISHDHAWSWVRQPPGEGLEWIGFISYSGITNYNPSLQGRVTISRDNSKNTLYLQMNSLRAEDTAVYYCARSLARTTAMDYWGEGTLVTVSSAKTTPPSVYPLAPGSAAQTNSMVTLGCLVKGYFPEPVTVTWNSGSLSSGVHTFPAVLQSDLYTLSSSVTVPSSTWPSETVTCNVAHPASSTKVDKKIVPRDCGCKPCICENYEVEDVFIFPPKPKDVLTITLTPKVTCVVVDISKDDPEVQFSWFVDDVEVHTAQTQPREEQFNSTFRSVSELPIMHQDWLNGKEFKCRVNSAAFPAPIEKTISKTKGRPKAPQVYTIPPPKEQMAKDKVSLTCMITDFFPEDITVEWQWNGQPAENYKNTQPIMDTDGSYFVYSKLNVQKSNWEAGNTFTCSVLHEGLHNHHTEKSLSHSPGK
light: not shown
notes: mIgG1 with T230E/V231N/P232Y/S238E/S239D (EU); template T3; copies: 2 + 2
Kd [1]: 0.659 nM | relative mFcγRII-binding activity (mIgG1 = 1) [1]: 319 | Kd [2]: 16.9 nM | relative mFcγRIII-binding activity (mIgG1 = 1) [2]: 16.7 | relative mFcγRII-binding activity (mIgG1 = 1) [3]: 319 | relative mFcγRIII-binding activity (mIgG1 = 1) [4]: 16.7 | Kd [5]: 0.659 nM | Kd [6]: 16.9 nM | I/A (mFcγRII selectivity) [7]: 25.6 | relative I/A (mFcγRII selectivity) (mIgG1 = 1) [7]: 19.1

B2: H237-MB390/MRAL-k0 (antibody, mouse IgG1, kappa)
heavy: QVQLQESGPGLVKPSETLSLTCAVSGHSISHDHAWSWVRQPPGEGLEWIGFISYSGITNYNPSLQGRVTISRDNSKNTLYLQMNSLRAEDTAVYYCARSLARTTAMDYWGEGTLVTVSSAKTTPPSVYPLAPGSAAQTNSMVTLGCLVKGYFPEPVTVTWNSGSLSSGVHTFPAVLQSDLYTLSSSVTVPSSTWPSETVTCNVAHPASSTKVDKKIVPRDCGCKPCICEPNEVEDVFIFPPKPKDVLTITLTPKVTCVVVDISKDDPEVQFSWFVDDVEVHTAQTQPREEQFNSTFRSVSELPIMHQDWLNGKEFKCRVNSAAFPAPIEKTISKTKGRPKAPQVYTIPPPKEQMAKDKVSLTCMITDFFPEDITVEWQWNGQPAENYKNTQPIMDTDGSYFVYSKLNVQKSNWEAGNTFTCSVLHEGLHNHHTEKSLSHSPGK
light: not shown
notes: mIgG1 with T230E/V231P/P232N/S238E/S239D (EU); template T8; copies: 2 + 2
Kd [1]: 0.403 nM | relative mFcγRII-binding activity (mIgG1 = 1) [1]: 522 | Kd [2]: 23.7 nM | relative mFcγRIII-binding activity (mIgG1 = 1) [2]: 11.9 | relative mFcγRII-binding activity (mIgG1 = 1) [3]: 522 | relative mFcγRIII-binding activity (mIgG1 = 1) [4]: 11.9 | Kd [5]: 0.403 nM | Kd [6]: 23.7 nM | I/A (mFcγRII selectivity) [7]: 59 | relative I/A (mFcγRII selectivity) (mIgG1 = 1) [7]: 44

B3: H237-MB397/MRAL-k0 (antibody, mouse IgG1, kappa)
heavy: QVQLQESGPGLVKPSETLSLTCAVSGHSISHDHAWSWVRQPPGEGLEWIGFISYSGITNYNPSLQGRVTISRDNSKNTLYLQMNSLRAEDTAVYYCARSLARTTAMDYWGEGTLVTVSSAKTTPPSVYPLAPGSAAQTNSMVTLGCLVKGYFPEPVTVTWNSGSLSSGVHTFPAVLQSDLYTLSSSVTVPSSTWPSETVTCNVAHPASSTKVDKKIVPRDCGCKPCICETYEVEDVFIFPPKPKDVLTITLTPKVTCVVVDISKDDPEVQFSWFVDDVEVHTAQTQPREEQFNSTFRSVSELPIMHQDWLNGKEFKCRVNSAAFPAPIEKTISKTKGRPKAPQVYTIPPPKEQMAKDKVSLTCMITDFFPEDITVEWQWNGQPAENYKNTQPIMDTDGSYFVYSKLNVQKSNWEAGNTFTCSVLHEGLHNHHTEKSLSHSPGK
light: not shown
notes: mIgG1 with T230E/V231T/P232Y/S238E/S239D (EU); template T4; copies: 2 + 2
Kd [1]: 0.379 nM | relative mFcγRII-binding activity (mIgG1 = 1) [1]: 555 | Kd [2]: 14.6 nM | relative mFcγRIII-binding activity (mIgG1 = 1) [2]: 19.3 | relative mFcγRII-binding activity (mIgG1 = 1) [3]: 555 | relative mFcγRIII-binding activity (mIgG1 = 1) [4]: 19.3 | Kd [5]: 0.379 nM | Kd [6]: 14.6 nM | I/A (mFcγRII selectivity) [7]: 38.7 | relative I/A (mFcγRII selectivity) (mIgG1 = 1) [7]: 28.9

B4: H237-MB432/MRAL-k0 (antibody, mouse IgG1, kappa)
heavy: QVQLQESGPGLVKPSETLSLTCAVSGHSISHDHAWSWVRQPPGEGLEWIGFISYSGITNYNPSLQGRVTISRDNSKNTLYLQMNSLRAEDTAVYYCARSLARTTAMDYWGEGTLVTVSSAKTTPPSVYPLAPGSAAQTNSMVTLGCLVKGYFPEPVTVTWNSGSLSSGVHTFPAVLQSDLYTLSSSVTVPSSTWPSETVTCNVAHPASSTKVDKKIVPRDCGCKPCICQPNEVEDVFIFPPKPKDVLTITLTPKVTCVVVDISKDDPEVQFSWFVDDVEVHTAQTQPREEQFNSTFRSVSELPIMHQDWLNGKEFKCRVNSAAFPAPIEKTISKTKGRPKAPQVYTIPPPKEQMAKDKVSLTCMITDFFPEDITVEWQWNGQPAENYKNTQPIMDTDGSYFVYSKLNVQKSNWEAGNTFTCSVLHEGLHNHHTEKSLSHSPGK
light: not shown
notes: mIgG1 with T230Q/V231P/P232N/S238E/S239D (EU); template T9; copies: 2 + 2
Kd [1]: 0.613 nM | relative mFcγRII-binding activity (mIgG1 = 1) [1]: 343 | Kd [2]: 26.4 nM | relative mFcγRIII-binding activity (mIgG1 = 1) [2]: 10.7 | relative mFcγRII-binding activity (mIgG1 = 1) [3]: 343 | relative mFcγRIII-binding activity (mIgG1 = 1) [4]: 10.7 | Kd [5]: 0.613 nM | Kd [6]: 26.4 nM | I/A (mFcγRII selectivity) [7]: 43.1 | relative I/A (mFcγRII selectivity) (mIgG1 = 1) [7]: 32.2

B5: H237-MB389/MRAL-k0 (antibody, mouse IgG1, kappa)
heavy: QVQLQESGPGLVKPSETLSLTCAVSGHSISHDHAWSWVRQPPGEGLEWIGFISYSGITNYNPSLQGRVTISRDNSKNTLYLQMNSLRAEDTAVYYCARSLARTTAMDYWGEGTLVTVSSAKTTPPSVYPLAPGSAAQTNSMVTLGCLVKGYFPEPVTVTWNSGSLSSGVHTFPAVLQSDLYTLSSSVTVPSSTWPSETVTCNVAHPASSTKVDKKIVPRDCGCKPCICEPAEVEDVFIFPPKPKDVLTITLTPKVTCVVVDISKDDPEVQFSWFVDDVEVHTAQTQPREEQFNSTFRSVSELPIMHQDWLNGKEFKCRVNSAAFPAPIEKTISKTKGRPKAPQVYTIPPPKEQMAKDKVSLTCMITDFFPEDITVEWQWNGQPAENYKNTQPIMDTDGSYFVYSKLNVQKSNWEAGNTFTCSVLHEGLHNHHTEKSLSHSPGK
light: not shown
notes: mIgG1 with T230E/V231P/P232A/S238E/S239D (EU); template T6; copies: 2 + 2
Kd [1]: 0.858 nM | relative mFcγRII-binding activity (mIgG1 = 1) [1]: 245 | Kd [2]: 40.6 nM | relative mFcγRIII-binding activity (mIgG1 = 1) [2]: 7 | relative mFcγRII-binding activity (mIgG1 = 1) [3]: 245 | relative mFcγRIII-binding activity (mIgG1 = 1) [4]: 7 | Kd [5]: 0.858 nM | Kd [6]: 40.6 nM | I/A (mFcγRII selectivity) [7]: 47.3 | relative I/A (mFcγRII selectivity) (mIgG1 = 1) [7]: 35.3

B6: H237-MB425/MRAL-k0 (antibody, mouse IgG1, kappa)
heavy: QVQLQESGPGLVKPSETLSLTCAVSGHSISHDHAWSWVRQPPGEGLEWIGFISYSGITNYNPSLQGRVTISRDNSKNTLYLQMNSLRAEDTAVYYCARSLARTTAMDYWGEGTLVTVSSAKTTPPSVYPLAPGSAAQTNSMVTLGCLVKGYFPEPVTVTWNSGSLSSGVHTFPAVLQSDLYTLSSSVTVPSSTWPSETVTCNVAHPASSTKVDKKIVPRDCGCKPCICIPAEVEDVFIFPPKPKDVLTITLTPKVTCVVVDISKDDPEVQFSWFVDDVEVHTAQTQPREEQFNSTFRSVSELPIMHQDWLNGKEFKCRVNSAAFPAPIEKTISKTKGRPKAPQVYTIPPPKEQMAKDKVSLTCMITDFFPEDITVEWQWNGQPAENYKNTQPIMDTDGSYFVYSKLNVQKSNWEAGNTFTCSVLHEGLHNHHTEKSLSHSPGK
light: not shown
notes: mIgG1 with T230I/V231P/P232A/S238E/S239D (EU); template T7; copies: 2 + 2
relative mFcγRII-binding activity (mIgG1 = 1) [1]: 194 | relative mFcγRIII-binding activity (mIgG1 = 1) [2]: 5.5 | relative mFcγRII-binding activity (mIgG1 = 1) [3]: 194 | relative mFcγRIII-binding activity (mIgG1 = 1) [4]: 5.5 | Kd [5]: 1.08 nM | Kd [6]: 51 nM | relative I/A (mFcγRII selectivity) (mIgG1 = 1) [7]: 35.2
